In patent publication US20240216513A1, “FATTY ACID-BIFUNCTIONAL DEGRADER CONJUGATES AND THEIR METHODS OF USE” (Novartis AG, priority 2021, published 2024):

Key:
[1] = BTK FAC plasma stability assay, PBS buffer arm; assay type: physicochemical; conditions: for Plasma stability (h) PBS: incubation to 24 h
Procedure: (§1) Plasma stability was conducted in Dulbecco's PBS buffer, mouse plasma, rat plasma or human plasma frozen with K3-EDTA from BiolVT). Thawed plasma was centrifuged prior to warming for 5 minutes at 37° C. Working solutions were prepared from 10 mM DMSO solution to 500 µM in acetonitrile:water (1:1); 2 µL of working solution was added to 198 µL blank plasma or PBS and mixed manually. 4×45 µL of spiked matrix was aliquoted into glass incubation plates (96-well DW glass microplate) and sealed with blue silicon/PTFE seal; then incubated on a Thermo shaker (38° C. 300 RPM). Samples were prepared at 0, 2, 6 and 24 h timepoints, by protein precipitation with chilled acetonitrile containing internal standard Glyburide (0.2 µM). Precipitated samples were shaken for 10 minutes and stored at 4° C. until completion of the study. Following precipitation of the terminal sample, samples were frozen at −80° C. for 1 hour. Samples were then thawed prior to centrifugation (20 minutes, 4500 RPM at 4° C.). 50 µL of supernatant of each sample was transferred to 384 well analysis plate containing 30 µL of water. Semi quantitative analysis (analyte: internal standard peak area ratio) was performed by LC-MS/MS using a Sciex QTrap 5500.

[2] = BTK FAC plasma stability assay, mouse plasma; assay type: in vitro ADME; conditions: for Plasma stability (h) mouse / half-life at 5 µM: incubation to 24 h
Procedure: as §1

[3] = BTK FAC plasma stability assay, rat plasma; assay type: in vitro ADME; conditions: for Plasma stability (h) rat / half-life at 5 µM: incubation to 24 h
Procedure: as §1

[4] = BTK FAC plasma stability assay, dog plasma; assay type: in vitro ADME; conditions: for half-life at 5 µM: read-out: Plasma stability (h) dog (converted)

Row | Compound | % Release of degrader after 24 h PBS [1] | Plasma stability (h) PBS [1] | % Release of degrader after 24 h mouse [2] | Plasma stability (h) mouse [2] | % Release of degrader after 24 h rat [3] | Plasma stability (h) rat [3] | Plasma stability (h) dog [4] | % Release of degrader after 24 h dog [4] | half-life at 5 µM [2] | half-life at 5 µM [3] | half-life at 5 µM [4]
1 | CCCCCCCCCCCN(C(=O)CCCCCCCCCC(=O)O)[C@H](CCC(=O)NCCOCCOCCOCCOCCOCCOCCOCCOCCOCCOCCOCCOCCC(=O)NCC(=O)OC(C)(C)c1ccc(C(=O)Nc2cc(F)cc(-c3ncnc4[nH]c(-c5ccc(CCN6CCC7(CC6)CCN(C(=O)c6ccc(OC)c(N8CCC(=O)NC8=O)c6)CC7)cc5)cc34)c2C)c(F)c1)C(=O)O [Example A3, (R)-50-Carboxy-2-(4-((3-(6-(4-(2-(9-(3-(2,4-dioxotetrahydropyrimidin-1(2H)-yl)-4-methoxybenzoyl)-3,9-diazaspiro[5.5]undecan-3-yl)ethyl)phenyl)-7H-pyrrolo[2,3-d]pyrimidin-4-yl)-5-fluoro-2-methylphenyl)carbamoyl)-3-fluorophenyl)-2-methyl-4,7,47,52-tetraoxo-51-undecyl-3,10,13,16,19,22,25,28,31,34,37,40,43-tridecaoxa-6,46,51-triazadohexacontan-62-oic acid] | 1.9% | >48 h | 5.2% | >48 h | 9% | >48 h | 44.4 h | 9.7% | – | – | –
2 | CCCCCCCCCCCN(C(=O)CCCCCCCCCC(=O)O)C(CCC(=O)NCCOCCOCCOCCOCCOCCOCCOCCOCCOCCOCCOCCOCCC(=O)NCCOP(=O)(O)OC(C)(C)c1ccc(C(=O)Nc2cc(F)cc(-c3ncnc4[nH]c(-c5ccc(CCN6CCC7(CC6)CCN(C(=O)c6ccc(OC)c(N8CCC(=O)NC8=O)c6)CC7)cc5)cc34)c2C)c(F)c1)C(=O)O (stereo not shown) [Example A39, 47-Carboxy-1-((((2-(4-((3-(6-(4-(2-(9-(3-(2,4-dioxotetrahydropyrimidin-1(2H)-yl)-4-methoxybenzoyl)-3,9-diazaspiro[5.5]undecan-3-yl)ethyl)phenyl)-7H-pyrrolo[2,3-d]pyrimidin-4-yl)-5-fluoro-2-methylphenyl)carbamoyl)-3-fluorophenyl)propan-2-yl)oxy)(hydroxy)phosphoryl)oxy)-4,44,49-trioxo-48-undecyl-7,10,13,16,19,22,25,28,31,34,37,40-dodecaoxa-3,43,48-triazanonapentacontan-59-oic acid] | 0% | >48 h | 0% | >48 h | 0% | >48 h | 39.0 h | 0% | – | – | –
3 | CCCCCCCCCCCN(C(=O)CCCCCCCCCC(=O)O)[C@@H](CCC(=O)NCC(=O)OC(C)(C)c1ccc(C(=O)Nc2cc(F)cc(-c3ncnc4[nH]c(-c5ccc(CCN6CCC7(CC6)CCN(C(=O)c6ccc(OC)c(N8CCC(=O)NC8=O)c6)CC7)cc5)cc34)c2C)c(F)c1)C(=O)O [Example A6, (S)-11-((1-Carboxy-4-((2-((2-(4-((3-(6-(4-(2-(9-(3-(2,4-dioxotetrahydropyrimidin-1(2H)-yl)-4-methoxybenzoyl)-3,9-diazaspiro[5.5]undecan-3-yl)ethyl)phenyl)-7H-pyrrolo[2,3-d]pyrimidin-4-yl)-5-fluoro-2-methylphenyl)carbamoyl)-3-fluorophenyl)propan-2-yl)oxy)-2-oxoethyl)amino)-4-oxobutyl)(undecyl)amino)-11-oxoundecanoic acid] | 0.4% | >48 h | 37.4% | – | 21.1% | – | – | 4.6% | 10.7 h | 36.6 h | 12.7 h
4 | CCCCCCCCCCCN(C(=O)CCCCCCCCCC(=O)O)C(CCC(=O)NCCOCCOCCOCCOCCC(=O)NCC(=O)OC(C)(C)c1ccc(C(=O)Nc2cc(F)cc(-c3ncnc4[nH]c(-c5ccc(CCN6CCC7(CC6)CCN(C(=O)c6ccc(OC)c(N8CCC(=O)NC8=O)c6)CC7)cc5)cc34)c2C)c(F)c1)C(=O)O (stereo not shown) [Example A7, 26-Carboxy-2-(4-((3-(6-(4-(2-(9-(3-(2,4-dioxotetrahydropyrimidin-(2H)-yl)-4-methoxybenzoyl)-3,9-diazaspiro[5.5]undecan-3-yl)ethyl)phenyl)-7H-pyrrolo[2,3-d]pyrimidin-4-yl)-5-fluoro-2-methylphenyl)carbamoyl)-3-fluorophenyl)-2-methyl-4,7,23,28-tetraoxo-27-undecyl-3,10,13,16,19-pentaoxa-6,22,27-triazaoctatriacontan-38-oicacid] | 1.5% | >48 h | 53.6% | 10.1 h | – | – | – | – | – | – | –
5 | CCCCCCCCCCCN(C(=O)CCCCCCCCCC(=O)O)[C@@H](CCC(=O)NCC(=O)O[C@H]1CN(C(=O)Nc2cc(F)cc(-c3ncnc4[nH]c(-c5ccc(CCN6CCC7(CC6)CCN(C(=O)c6ccc(OC)c(N8CCC(=O)NC8=O)c6)CC7)cc5)cc34)c2C)C[C@@H]1CC(C)C)C(=O)O [Example A31, 11-(((S)-1-Carboxy-4-((2-(((3R,4S)-1-((3-(6-(4-(2-(9-(3-(2,4-dioxotetrahydropyrimidin-1(2H)-yl)-4-methoxybenzoyl)-3,9-diazaspiro[5.5]undecan-3-yl)ethyl)phenyl)-7H-pyrrolo[2,3-d]pyrimidin-4-yl)-5-fluoro-2-methylphenyl)carbamoyl)-4-isobutylpyrrolidin-3-yl)oxy)-2-oxoethyl)amino)-4-oxobutyl)(undecyl)amino)-11-oxoundecanoic acid] | – | >72 h | – | – | – | – | – | – | < 1 h | 1.2 h | 33.6 h
6 | CCCCCCCCCCCN(C(=O)CCCCCCCCCC(=O)O)C(CCC(=O)NCCOCCOCCOCCOCCC(=O)NCC(=O)O[C@H]1CN(C(=O)Nc2cc(F)cc(-c3ncnc4[nH]c(-c5ccc(CCN6CCC7(CC6)CCN(C(=O)c6ccc(OC)c(N8CCC(=O)NC8=O)c6)CC7)cc5)cc34)c2C)C[C@@H]1CC(C)C)C(=O)O (stereo partly drawn) [Example A30, 23-Carboxy-1-(((3R,4S)-1-((3-(6-(4-(2-(9-(3-(2,4-dioxotetrahydropyrimidin-1(2H)-yl)-4-methoxybenzoyl)-3,9-diazaspiro[5.5]undecan-3-yl)ethyl)phenyl)-7H-pyrrolo[2,3-d]pyrimidin-4-yl)-5-fluoro-2-methylphenyl)carbamoyl)-4-isobutylpyrrolidin-3-yl)oxy)-1,4,20,25-tetraoxo-24-undecyl-7,10,13,16-tetraoxa-3,19,24-triazapentatriacontan-35-oic acid] | – | >72 h | – | <1 h | – | – | – | – | – | – | –
